Reference: patent US20090304746A1
Like-named read-outs stand apart in the source and are kept apart here.

Key:
[1] = target: HLA-A*1101 (human)
[2] = target: T1, HLA-DR6w19 (DRB1*1302) (human); experiment: purified HLA-DR, inhibition of 125I standard peptide, gel filtration
T1 chain 1: not shown
T1 chain 2: not shown

[3] = target: T2, HLA-DR9 (DRB1*0901) (human); experiment: as above
T2 chain 1: not shown
T2 chain 2: not shown

[4] = target: T3, HLA-DR7 (DRB1*0701) (human); experiment: as above
T3 chain 1: not shown
T3 chain 2: not shown

[5] = target: HLA-A*0201 (Human); experiment: competition with 125I-labelled probe peptide for purified HLA, gel filtration
[6] = target: HLA-A*1101 (human); experiment: competition with 125I-labeled standard peptide on purified HLA, gel filtration
[7] = target: HLA-A*0301 (human); experiment: as above
[8] = target: HLA-B*3501 (Human); experiment: competition with 125I-labelled standard peptide for purified HLA, gel filtration
[9] = target: HLA-B*5101 (Human); experiment: as above
[10] = target: HLA-B*5301 (Human); experiment: as above
[11] = target: HLA-B*0702 (Human); experiment: as above
[12] = target: HLA-A*0301 (human)

Binder: VGGVYLLPR (modifications not checked) [… (HCV polyprotein position 31, 9-mer)]
- binding affinity ratio (IC50 of standard peptide / IC50 of test peptide) [1]: 0.0019

Binder: VGIYLLPNR (modifications not checked) [… (HCV polyprotein position 3036, 9-mer)]
- binding affinity ratio (IC50 of standard peptide / IC50 of test peptide) [1]: 0.01

Binder: YLLPRRGPR (modifications not checked) [… (HCV polyprotein position 35, 9-mer, A11 motif peptide)]
- binding affinity ratio (IC50 of standard peptide / IC50 of test peptide) ([1]; remark: other sources report otherwise): 0.0005

Binder: GNWFGCTWMNSTGFT (modifications not checked)
- relative binding (IC50 of standard peptide / IC50 of test peptide) [2]: 0.0001
- relative binding (IC50 of standard peptide / IC50 of test peptide) [3]: 0.027

Binder: VYLLPRRGPRLGVRA (modifications not checked)
- relative binding (IC50 of standard peptide / IC50 of test peptide) [2]: 0.0001
- relative binding (IC50 of standard peptide / IC50 of test peptide) [4]: 0.0003

Binder: LIVFPDLGV (modifications not checked) [HCV peptide … (polyprotein position 2612)]
- binding affinity ratio (IC50 of standard peptide / IC50 of test peptide) [5]: 0.0002

Binder: LLPAILSPGA (modifications not checked) [HCV peptide … (polyprotein position 1887)]
- binding affinity ratio (IC50 of standard peptide / IC50 of test peptide) [5]: 0.0061

Binder: LVAYQATVCA (modifications not checked) [HCV peptide … (polyprotein position 1591)]
- binding affinity ratio (IC50 of standard peptide / IC50 of test peptide) [5]: 0.0002

Binder: LVDILAGYGA (modifications not checked) [HCV peptide … (polyprotein position 1853)]
- binding affinity ratio (IC50 of standard peptide / IC50 of test peptide) [5]: -0.0001

Binder: LVNLLPAIL (modifications not checked) [HCV peptide … (polyprotein position 1884)]
- binding affinity ratio (IC50 of standard peptide / IC50 of test peptide) [5]: 0.0002

Binder: TSERSQPRGR (modifications not checked) [HCV peptide … (HCV polyprotein position 52)]
- binding affinity ratio (IC50 of standard peptide / IC50 of test peptide) [6]: 0.0001
- binding affinity ratio (IC50 of standard peptide / IC50 of test peptide) [7]: 0.0003

Binder: WLLSPRGSR (modifications not checked) [HCV peptide … (HCV polyprotein position 96)]
- binding affinity ratio (IC50 of standard peptide / IC50 of test peptide) [6]: 0.0005
- binding affinity ratio (IC50 of standard peptide / IC50 of test peptide) [7]: 0.0008

Binder: LPGCSFSIFL (modifications not checked)
- binding affinity ratio (IC50 standard/IC50 test) [8]: 0.0009
- binding affinity ratio (IC50 standard/IC50 test) [9]: 0.01

Binder: QPEKGGRKPA (modifications not checked)
- binding affinity ratio (IC50 standard/IC50 test) [8]: 0.0001
- binding affinity ratio (IC50 standard/IC50 test) [9]: 0.0001
- binding affinity ratio (IC50 standard/IC50 test) [10]: 0.0002

Binder: SPGEINRVA (modifications not checked)
- binding affinity ratio (IC50 standard/IC50 test) [8]: 0.0001
- binding affinity ratio (IC50 standard/IC50 test) [9]: 0.0001
- binding affinity ratio (IC50 standard/IC50 test) [11]: 0.0003
- binding affinity ratio (IC50 standard/IC50 test) [10]: 0.0002

Binder: RGRRQPIPK (modifications not checked) [HCV peptide … (polyprotein position 59)]
- binding affinity ratio (IC50 of standard peptide / IC50 of test peptide) [12]: 0.012

Binder: RLLAPITAY (modifications not checked) [HCV peptide … (polyprotein position 1029)]
- binding affinity ratio (IC50 of standard peptide / IC50 of test peptide) [12]: 2.7

Binder: RVCEKMALY (modifications not checked) [HCV peptide … (polyprotein position 2621)]
- binding affinity ratio (IC50 of standard peptide / IC50 of test peptide) [12]: 0.18

Binder: RVLEDGVNY (modifications not checked) [HCV peptide … (polyprotein position 156)]
- binding affinity ratio (IC50 of standard peptide / IC50 of test peptide) [12]: 0.012

Binder: SSDLYLVTR (modifications not checked)
- binding affinity ratio (IC50 of standard peptide / IC50 of test peptide) [12]: 0.0003

Binder: SSDLYLVTRH (modifications not checked)
- binding affinity ratio (IC50 of standard peptide / IC50 of test peptide) [12]: 0.0003

Binder: GGVYLLPRR (modifications not checked) [… (HCV polyprotein position 32)]
- binding affinity ratio (IC50 of standard peptide / IC50 of test peptide) [1]: 0.001

Binder: IVGGVYLLPR (modifications not checked) [HCV peptide … (position 30)]
- binding affinity ratio (IC50 of standard peptide / IC50 of test peptide) [1]: 0.0056
